Measured values as given in patent US20250034222A1, “IL-38 VARIANTS” (Monash University, priority 2021, published 2025).

Experiment: Nano differential scanning fluorimetry of IL-38-Fc variants (apparent melting temperature)
Assay type: physicochemical
Details: N-terminal IL-38-Fc variants, knobs-into-holes IgG1-Fc, IL-38 (C70V, C37S, C38R, C43A, C67A, C123S)
From the text: Indicated IL-38 chains differing in their N-terminus were expressed and purified from Expi293 cells. The relative purification yield is indicated between the N-terminal variants. The stability of the purified product was monitored by nano differential scanning fluorimetry and is expressed as the apparent melting temperature (Tm). N-terminal variants (except 2-152) were trialled as “knobs-into-holes” IgG1-Fc fusions utilising the IL-38 (C70V, C37S, C38R, C43A, C67A, C123S) sequence. The 2-152 N-terminal variant was trialled as “knobs-into-holes” IgG1-Fc fusions utilising the IL-38 (C2A, C70V, C37S, C38R, C43A, C67A, C123S) sequence.
Indicated linker variants were expressed and purified from Expi293 cells. The relative purification yield is indicated between the linker variants. The stability of the purified product was monitored by nano differential scanning fluorimetry and is expressed as the apparent melting temperature (Tm). […] All N-terminal linker variants were trialled as “knobs-into-holes” IgG1-Fc fusions utilising the IL-38 (C70V, C37S, C38R, C43A, C67A, C123S) sequence.

For “3-152: Knobs-into-holes IgG1-Fc fusion, IL-38 chain residues 3-152 (C70V, C37S, C38R, C43A, C67A, C123S); probably SEQ ID NO: 25/26”, the “Stability (apparent melting temperature, Tm)” value was 66.0 °C.
